Test results from patent US20230158141A1 (YAFEI SHANGHAI BIOLOG MEDICINE SCIENCE AND TECHNOLOGY, published 2023).
Changes are numbered by the printed parent chain. Names may count otherwise. Like-named read-outs stand apart in the source and are kept apart here. Values belong to the binder of their own block, whether it stands above or below them.

What was measured:
PD-1 [1] = target: T1, PD-1 (UniProt Q15116 25-167, limits assumed); assay: ELISA, OD mutant/OD WT; B=70-90%
PD-1 [2] = target: T1, PD-1; assay: ELISA, conjugate vs WT antibody
PD-1 [3] = target: T1, PD-1; assay: ELISA, conjugate vs WT antibody; remark: listed apart in the source
CD28 = CD28 (UniProt P10747 19-152, limits assumed); assay: ELISA, conjugate vs WT antibody
CTLA-4 [4] = target: T2, CTLA-4 (UniProt P16410 36-162, limits assumed); assay: ELISA, OD mutant/OD WT; ↓=less than 70%
T2 sequence (P16410 36-162 limits assumed): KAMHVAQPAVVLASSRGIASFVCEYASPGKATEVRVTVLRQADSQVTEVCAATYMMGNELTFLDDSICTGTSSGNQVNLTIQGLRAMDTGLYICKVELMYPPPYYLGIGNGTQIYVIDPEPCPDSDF

CTLA-4 [5] = target: T3, CTLA-4 (UniProt P16410 36-162, limits assumed); assay: ELISA; S47 on the Cys
T3 construct: also called CTLA-4 protein
T3 sequence (P16410 36-162 limits assumed): as above

CTLA-4 [6] = target: T3, CTLA-4; assay: ELISA; R4-1 on the Cys
CTLA-4 [7] = target: T3, CTLA-4; assay: ELISA; R4-1 on the Cys; remark: listed apart in the source
CTLA-4 [8] = target: T2, CTLA-4; assay: ELISA, OD mutant/OD WT; A=90-110%

T1 sequence (Q15116 25-167 limits assumed): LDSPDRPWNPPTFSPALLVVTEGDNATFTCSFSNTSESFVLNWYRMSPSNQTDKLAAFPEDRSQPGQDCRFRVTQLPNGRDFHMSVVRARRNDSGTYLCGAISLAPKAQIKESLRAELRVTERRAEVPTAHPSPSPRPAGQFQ

B16: anti-CD28 antibody heavy chain G54C-R4-1 (antibody, human IgG4, kappa, V domains shown)
VH: QVQLVQSGAEVKKPGASVKVSCKASGYTFTSYYIHWVRQAPGQGLEWIGCIYPCNVNTNYNEKFKDRATLTVDTSISTAYMELSRLRSDDTAVYFCTRSHYGLDWNFDVWGQGTTVTVSS
VL: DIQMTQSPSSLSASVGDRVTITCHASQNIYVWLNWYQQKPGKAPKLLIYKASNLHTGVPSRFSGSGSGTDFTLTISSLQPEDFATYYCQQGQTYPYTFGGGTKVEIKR
modifications: R4-1 on Cys 54
binding activity (% of WT) (CD28): 97.9%

B17: anti-CD28 antibody heavy chain G102C-R4-1 (antibody, human IgG4, kappa, V domains shown)
VH: B16 VH with C54G, G102C
VL: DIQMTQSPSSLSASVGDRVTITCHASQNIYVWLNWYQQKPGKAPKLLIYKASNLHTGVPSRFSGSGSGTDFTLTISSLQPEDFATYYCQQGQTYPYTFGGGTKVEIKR
modifications: R4-1 on Cys 102
binding activity (% of WT) (CD28): 80.1%

B18: anti-CD28 antibody heavy chain Y27C-R4-4 (antibody, human IgG4, kappa, V domains shown)
VH: B16 VH with Y27C, C54G
VL: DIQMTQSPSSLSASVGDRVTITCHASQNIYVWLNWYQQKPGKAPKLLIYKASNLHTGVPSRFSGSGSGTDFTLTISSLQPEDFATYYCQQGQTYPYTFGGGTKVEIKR
modifications: R4-4 on Cys 27
binding activity (% of WT) (CD28): 94.2%

B19: anti-CD28 antibody heavy chain T30C-R4-1 (antibody, human IgG4, kappa, V domains shown)
VH: B16 VH with T30C, C54G
VL: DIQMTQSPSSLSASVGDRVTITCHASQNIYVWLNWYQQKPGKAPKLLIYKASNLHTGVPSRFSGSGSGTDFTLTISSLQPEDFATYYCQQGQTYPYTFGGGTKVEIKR
modifications: R4-1 on Cys 30
binding activity (% of WT) (CD28): 87.3%

B20: anti-CD28 antibody heavy chain Y52C-R4-4 (antibody, human IgG4, kappa, V domains shown)
VH: B16 VH with Y52C, C54G
VL: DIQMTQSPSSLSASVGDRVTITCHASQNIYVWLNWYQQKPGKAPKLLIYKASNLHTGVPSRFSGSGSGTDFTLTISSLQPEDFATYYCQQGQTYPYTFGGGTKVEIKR
modifications: R4-4 on Cys 52
binding activity (% of WT) (CD28): 91.6%

B21: anti-CD28 antibody heavy chain S31C-R4-1 (antibody, human IgG4, kappa, V domains shown)
VH: B16 VH with S31C, C54G
VL: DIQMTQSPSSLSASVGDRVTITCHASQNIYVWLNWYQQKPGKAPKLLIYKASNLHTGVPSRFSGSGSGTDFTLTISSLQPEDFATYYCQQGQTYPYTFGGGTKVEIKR
modifications: R4-1 on Cys 31
binding activity (% of WT) (CD28): 97.5%

B22: anti-CD28 antibody heavy chain S99C-R4-1 (antibody, human IgG4, kappa, V domains shown)
VH: B16 VH with C54G, S99C
VL: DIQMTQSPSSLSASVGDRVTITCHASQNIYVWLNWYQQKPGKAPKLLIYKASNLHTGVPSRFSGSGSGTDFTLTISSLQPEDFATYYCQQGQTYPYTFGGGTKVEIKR
modifications: R4-1 on Cys 99
binding activity (% of WT) (CD28): 87.6%

B23: anti-CD28 antibody heavy chain T58C-R4-1 (antibody, human IgG4, kappa, V domains shown)
VH: B16 VH with C54G, T58C
VL: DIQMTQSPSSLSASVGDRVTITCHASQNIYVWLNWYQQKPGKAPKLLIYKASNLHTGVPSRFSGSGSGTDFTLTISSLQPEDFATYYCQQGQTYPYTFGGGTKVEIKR
modifications: R4-1 on Cys 58
binding activity (% of WT) (CD28): 89.3%

B24: anti-CTLA-4 antibody heavy chain D106C (antibody, human IgG1, kappa, V domains shown)
VH: QVQLVESGGGVVQPGRSLRLSCAASGFTFSSYTMHWVRQAPGKGLEWVTFISYDGNNKYYADSVKGRFTISRDNSKNTLYLQMNSLRAEDTAIYYCARTGWLGPFCYWGQGTLVTVSS
VL: not shown
binding activity vs wild type (CTLA-4 [4]): < 70%

B25: Ipilimumab L31 Ser to Cys (antibody, V domains shown)
VH: B24 VH with C106D
VL: not shown
modifications: chain 2 pos 32 (Kabat L31): introduced Cys carrying the conjugated group of the row (R4-1 or S47), written C
Activity after S47 (40 kD) blocking (CTLA-4 [5]): 12%
Binding activity (CTLA-4 [6]): 99%
Binding activity (CTLA-4 [7]): 99%

B27: Ipilimumab L33 Leu to Cys (antibody, V domains shown)
VH: B24 VH with C106D
VL: not shown
modifications: chain 2 pos 34 (Kabat L33): introduced Cys carrying the conjugated group of the row (R4-1 or S47), written C
Activity after S47 (40 kD) blocking (CTLA-4 [5]): 6%
Binding activity (CTLA-4 [6]): 95%
Binding activity (CTLA-4 [7]): 95%

B28: Ipilimumab L34 Ala to Cys (antibody, V domains shown)
VH: B24 VH with C106D
VL: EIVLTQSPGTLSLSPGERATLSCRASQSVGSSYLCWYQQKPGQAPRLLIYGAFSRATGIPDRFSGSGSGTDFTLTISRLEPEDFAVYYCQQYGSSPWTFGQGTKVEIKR
modifications: chain 2 pos 35 (Kabat L34): introduced Cys carrying the conjugated group of the row (R4-1 or S47), written C
Activity after S47 (40 kD) blocking (CTLA-4 [5]): 11%
Binding activity (CTLA-4 [6]): 92%
Binding activity (CTLA-4 [7]): 92%

B29: Ipilimumab L50 Gly to Cys (antibody, V domains shown)
VH: B24 VH with C106D
VL: not shown
modifications: chain 2 pos 51 (Kabat L50): introduced Cys carrying the conjugated group of the row (R4-1, R4-3 or S47), written C
Activity after S47 (40 kD) blocking (CTLA-4 [5]): 19%
Binding activity (CTLA-4 [6]): 97%
Binding activity (CTLA-4 [7]): 97%

B30: anti-CTLA-4 antibody heavy chain K65C (antibody, human IgG1, kappa, V domains shown)
VH: B24 VH with K65C, C106D
VL: not shown
binding activity vs wild type (CTLA-4 [4]): < 70%

B31: anti-CTLA-4 antibody heavy chain S63C (antibody, human IgG1, kappa, V domains shown)
VH: B24 VH with S63C, C106D
VL: not shown
binding activity (OD after mutation/OD wild type) (CTLA-4 [8]): 90 to 110%

B34: Ipilimumab L52 Phe to Cys (antibody, V domains shown)
VH: B24 VH with C106D
VL: not shown
modifications: chain 2 pos 53 (Kabat L52): introduced Cys carrying the conjugated group of the row (R4-1 or S47), written C
Activity after S47 (40 kD) blocking (CTLA-4 [5]): 16%
Binding activity (CTLA-4 [6]): 72%
Binding activity (CTLA-4 [7]): 72%

B35: anti-CTLA-4 antibody heavy chain K58C (antibody, human IgG1, kappa, V domains shown)
VH: B24 VH with K58C, C106D
VL: not shown
binding activity vs wild type (CTLA-4 [4]): < 70%

B36: anti-CTLA-4 antibody heavy chain T33C (antibody, human IgG1, kappa, V domains shown)
VH: B24 VH with T33C, C106D
VL: not shown
binding activity (OD after mutation/OD wild type) (CTLA-4 [8]): 90 to 110%

B37: Ipilimumab L51 Ala to Cys (antibody, V domains shown)
VH: B24 VH with C106D
VL: not shown
modifications: chain 2 pos 52 (Kabat L51): introduced Cys carrying the conjugated group of the row (R4-1 or S47), written C
Activity after S47 (40 kD) blocking (CTLA-4 [5]): 25%
Binding activity (CTLA-4 [6]): 92%
Binding activity (CTLA-4 [7]): 92%

Results, then the binder that gave them:

binding activity (OD after mutation/OD wild type) (PD-1 [1]): 70 to 90%
B1: anti-PD-1 antibody 2 heavy chain A61C (antibody, human IgG4 S228P, kappa, V domains shown)
VH: QVQLVESGGGVVQPGRSLRLDCKASGITFSNSGMHWVRQAPGKGLEWVAVIWYDGSKRYYCDSVKGRFTISRDNSKNTLFLQMNSLRAEDTAVYYCATNDDYWGQGTLVTVSS
VL: EIVLTQSPATLSLSPGERATLSCRASQSVSSYLAWYQQKPGQAPRLLIYDASNRATGIPARFSGSGSGTDFTLTISSLEPEDFAVYYCQQSSNWPRTFGQGTKVEIKR

binding activity (% of WT) (PD-1 [2]): 87.2%
B2: anti-PD-1 antibody 2 light chain A25C-R4-5 (antibody, human IgG4 S228P, kappa, V domains shown)
VH: B1 VH with C61A
VL: B1 VL with A25C
modifications: R4-5 on Cys 25

binding activity (% of WT) (PD-1 [2]): 45.5%
B3: anti-PD-1 antibody 2 light chain S92C-R4-1 (antibody, human IgG4 S228P, kappa, V domains shown)
VH: B1 VH with C61A
VL: B1 VL with S92C
modifications: R4-1 on Cys 92

binding activity (% of WT) (PD-1 [2]): 83.9%
B4: anti-PD-1 antibody 2 light chain A34C-R4-5 (antibody, human IgG4 S228P, kappa, V domains shown)
VH: B1 VH with C61A
VL: B1 VL with A34C
modifications: R4-5 on Cys 34

binding activity (% of WT) (PD-1 [2]): 25.6%
B5: anti-PD-1 antibody 2 light chain Y32C-R4-1 (antibody, human IgG4 S228P, kappa, V domains shown)
VH: B1 VH with C61A
VL: B1 VL with Y32C
modifications: R4-1 on Cys 32

binding activity (% of WT) (PD-1 [2]): 95.7%
B6: anti-PD-1 antibody 2 light chain S31C-R4-1 (antibody, human IgG4 S228P, kappa, V domains shown)
VH: B1 VH with C61A
VL: B1 VL with S31C
modifications: R4-1 on Cys 31

binding activity (OD after mutation/OD wild type) (PD-1 [1]): 70 to 90%
B7: anti-PD-1 antibody 2 heavy chain D54C (antibody, human IgG4 S228P, kappa, V domains shown)
VH: B1 VH with D54C, C61A
VL: B1 VL

binding activity (% of WT) (PD-1 [2]): 89.4%
B8: anti-PD-1 antibody 2 light chain T56C-R4-5 (antibody, human IgG4 S228P, kappa, V domains shown)
VH: B1 VH with C61A
VL: B1 VL with T56C
modifications: R4-5 on Cys 56

binding activity (OD after mutation/OD wild type) (PD-1 [1]): 70 to 90%
B9: anti-PD-1 antibody 2 heavy chain D101C (antibody, human IgG4 S228P, kappa, V domains shown)
VH: B1 VH with C61A, D101C
VL: B1 VL

binding activity (OD after mutation/OD wild type) (PD-1 [1]): 70 to 90%
B10: anti-PD-1 antibody 2 heavy chain I51C (antibody, human IgG4 S228P, kappa, V domains shown)
VH: B1 VH with I51C, C61A
VL: B1 VL

binding activity (% of WT) (PD-1 [2]): 34.4%
B11: anti-PD-1 antibody 2 light chain S30C-R4-1 (antibody, human IgG4 S228P, kappa, V domains shown)
VH: B1 VH with C61A
VL: B1 VL with S30C
modifications: R4-1 on Cys 30

binding activity (% of WT) (PD-1 [3]): 83.9%
B12: anti-PD-1 antibody 2 heavy chain A61C-R4-4 (antibody, human IgG4 S228P, kappa, V domains shown)
VH: B1 VH
VL: B1 VL
modifications: R4-4 on Cys 61

binding activity (OD after mutation/OD wild type) (PD-1 [1]): 70 to 90%
B13: anti-PD-1 antibody 1 heavy chain I51C (antibody, human IgG4 S228P, kappa, V domains shown)
VH: QVQLVQSGVEVKKPGASVKVSCKASGYTFTNYYMYWVRQAPGQGLEWMGGCNPSNGGTNFNEKFKNRVTLTTDSSTTTAYMELKSLQFDDTAVYYCARRDYRFDMGFDYWGQGTTVTVSS
VL: EIVLTQSPATLSLSPGERATLSCRASKGVSTSGYSYLHWYQQKPGQAPRLLIYLASYLESGVPARFSGSGSGTDFTLTISSLEPEDFAVYYCQHSRDLPLTFGGGTKVEIKR

binding activity (OD after mutation/OD wild type) (PD-1 [1]): 70 to 90%
B14: anti-PD-1 antibody 1 heavy chain K63C (antibody, human IgG4 S228P, kappa, V domains shown)
VH: B13 VH with C51I, K63C
VL: B13 VL

binding activity (OD after mutation/OD wild type) (PD-1 [1]): 70 to 90%
B15: anti-PD-1 antibody 1 heavy chain Y35C (antibody, human IgG4 S228P, kappa, V domains shown)
VH: B13 VH with Y35C, C51I
VL: B13 VL

binding activity vs wild type (CTLA-4 [4]): < 70%
B26: anti-CTLA-4 antibody heavy chain Y60C (antibody, human IgG1, kappa, V domains shown)
VH: B24 VH with Y60C, C106D
VL: not shown

binding activity vs wild type (CTLA-4 [4]): < 70%
B32: anti-CTLA-4 antibody heavy chain Y53C (antibody, human IgG1, kappa, V domains shown)
VH: B24 VH with Y53C, C106D
VL: not shown

binding activity vs wild type (CTLA-4 [4]): < 70%
B33: anti-CTLA-4 antibody heavy chain Y59C (antibody, human IgG1, kappa, V domains shown)
VH: B24 VH with Y59C, C106D
VL: not shown
